B1: ADP-ribosylation factor 6 (Homo sapiens), P62330 (parent)
chain: MGKVLSKIFGNKEMRILMLGLDAAGKTTILYKLKLGQSVTTIPTVGFNVETVTYKNVKFNVWDVGGQDKIRPLWRHYYTGTQGLIFVVDCADRDRIDEARQELHRIINDREMRDAIILIFANKQDLPDAMKPHEIQEKLGLTRIRDRNWYVQPSCATSGDGLYEGLTWLTSNYKS
partner: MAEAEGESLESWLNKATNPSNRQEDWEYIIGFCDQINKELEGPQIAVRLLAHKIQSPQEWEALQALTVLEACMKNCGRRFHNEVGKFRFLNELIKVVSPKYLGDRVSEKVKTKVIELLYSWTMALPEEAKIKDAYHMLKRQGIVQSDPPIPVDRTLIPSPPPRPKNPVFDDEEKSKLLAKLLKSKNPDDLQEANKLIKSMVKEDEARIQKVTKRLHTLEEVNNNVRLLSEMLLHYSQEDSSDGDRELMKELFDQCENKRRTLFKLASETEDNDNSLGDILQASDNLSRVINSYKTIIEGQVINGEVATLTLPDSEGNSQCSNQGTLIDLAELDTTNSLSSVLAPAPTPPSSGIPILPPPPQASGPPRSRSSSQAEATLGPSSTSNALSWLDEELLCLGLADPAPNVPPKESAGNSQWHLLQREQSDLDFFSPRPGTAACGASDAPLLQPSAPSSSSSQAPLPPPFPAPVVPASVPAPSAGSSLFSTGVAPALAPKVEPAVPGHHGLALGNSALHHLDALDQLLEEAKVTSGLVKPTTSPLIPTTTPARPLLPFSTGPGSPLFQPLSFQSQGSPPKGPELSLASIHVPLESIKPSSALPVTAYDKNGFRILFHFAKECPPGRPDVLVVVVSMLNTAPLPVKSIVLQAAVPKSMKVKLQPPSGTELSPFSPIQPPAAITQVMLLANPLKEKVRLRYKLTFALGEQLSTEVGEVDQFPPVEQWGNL
B2: ADP-ribosylation factor 6 (Homo sapiens), P62330 (parent)
chain: B1 chain
partner: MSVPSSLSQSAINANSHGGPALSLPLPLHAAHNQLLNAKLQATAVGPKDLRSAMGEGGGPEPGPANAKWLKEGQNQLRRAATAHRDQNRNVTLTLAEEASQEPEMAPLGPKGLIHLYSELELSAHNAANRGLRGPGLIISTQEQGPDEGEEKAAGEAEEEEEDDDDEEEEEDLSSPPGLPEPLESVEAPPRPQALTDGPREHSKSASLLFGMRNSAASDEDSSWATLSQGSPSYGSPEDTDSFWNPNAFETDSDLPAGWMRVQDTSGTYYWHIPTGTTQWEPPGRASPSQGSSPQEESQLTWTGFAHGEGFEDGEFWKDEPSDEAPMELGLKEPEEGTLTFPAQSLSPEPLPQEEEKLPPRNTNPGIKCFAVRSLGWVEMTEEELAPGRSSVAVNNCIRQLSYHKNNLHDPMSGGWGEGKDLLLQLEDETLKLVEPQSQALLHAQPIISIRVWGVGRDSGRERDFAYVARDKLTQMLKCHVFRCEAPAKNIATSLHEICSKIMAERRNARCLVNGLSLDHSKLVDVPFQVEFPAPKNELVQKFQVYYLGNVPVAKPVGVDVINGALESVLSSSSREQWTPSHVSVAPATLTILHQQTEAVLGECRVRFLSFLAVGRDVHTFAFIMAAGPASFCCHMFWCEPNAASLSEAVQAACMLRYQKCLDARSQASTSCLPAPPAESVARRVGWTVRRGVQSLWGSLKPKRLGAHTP

Variants of: B1
Settings: with gga3_human GGA3, Q9NZ52

effect of a mutation on the interaction | Variant
increasing interaction strength | Q67L
decreasing interaction strength | T27N

Variants of: B2
Settings: with apbb1_human APBB1, O00213

effect of a mutation on the interaction | Variant
increasing interaction strength | T27N
disrupting interaction strength | Q67L
